According to patent US20250002577A1 (ONCORESPONSE, published 2025):

Experiments:
[1] = target: T1, recombinant human LILRB2-His (human, UniProt Q8N423 22-461, limits assumed); test: MSD ELISA, coated antigen, transfection supernatant
T1 construct: Bought protein; also called LILRB2 protein
Protocol: (§1) To confirm binding to human LILRB1 and human LILRB2, transfection supernatants (obtained in Example 2) were evaluated for binding by ELISA. The conditioned media from these transient transfections were assayed for human IgG concentration by AlphaLISA® immunoassay (PerkinElmer, No. AL310C) (Table 4). A plate-based MSD ELISA was performed in which human LILRB1-His or LILRB2-His was immobilized, and binding of transfection supernatants of humanized mAb variants was detected via an anti-human IgG Sulfo-tag-labeled secondary antibody. The IgG1 version of the parental rabbit/human chimera (designated B21A1) transfection served as the benchmark EC₅₀ positive control.
(§2) Recombinant human and cynomolgus LILRB1 proteins (R&D Systems, No. 8989-T2-050; ACROBiosystems, No. CDJ-C52H3) and recombinant human and cynomolgus LILRB2 proteins (ACROBiosystems, No. LI2-H5220; No. L12-C52H3) were diluted in PBS to 4 μg/mL and added to a multi-array 384-well high-binding plates (MSD, No. L21XA4) at 10 μL/well and incubated at 4° C. overnight. The plates were washed several times with Wash Buffer (0.05% Tween® 20 in PBS), using a microplate washer and then blocked with 70 μL/well of 5% BSA in PBS for 1 hour (h) at room temperature (RT) with shaking at 700 rpm. After blocking, 20 μL/well of anti-LILRB2/LILRB1 antibodies or isotype control were added to the plates, and the plates were sealed and incubated for 2 h at RT with shaking at 700 rpm. After primary antibody binding, plates were washed five times with 70 μL/well of Wash Buffer (0.05% Tween® 20 in PBS) using a microplate washer. Secondary detection antibody (SULFO-TAG™-labeled goat anti-human IgG antibody (MSD, No. R32AJ-1)) was diluted to 4 μg/mL in assay diluent (1% BSA in PBS) and 10 μL/well was added to plates and incubated at RT protected from light for 1 h, with shaking at 700 rpm. Following incubation, plates were washed five times with Wash Buffer, using a microplate washer. After removal of the final wash, 35 μL/well of MSD Gold Read Buffer B (MSD, No. R60AM-4) was added to all wells using a Multidrop combo washer/dispenser, and plates were read using MESO Sector 600MM instrument (MSD) within 5 minutes (min) after addition of Read Buffer. Signals as counts per minute (cpm) were recorded.

[2] = target: T2, recombinant human LILRB1-His (human, UniProt Q8NHL6 24-458); test: as above
T2 construct: Bought protein; also called LILRB1 protein
Protocol: as §1, §2

T2 sequence (Q8NHL6 24-458 limits assumed): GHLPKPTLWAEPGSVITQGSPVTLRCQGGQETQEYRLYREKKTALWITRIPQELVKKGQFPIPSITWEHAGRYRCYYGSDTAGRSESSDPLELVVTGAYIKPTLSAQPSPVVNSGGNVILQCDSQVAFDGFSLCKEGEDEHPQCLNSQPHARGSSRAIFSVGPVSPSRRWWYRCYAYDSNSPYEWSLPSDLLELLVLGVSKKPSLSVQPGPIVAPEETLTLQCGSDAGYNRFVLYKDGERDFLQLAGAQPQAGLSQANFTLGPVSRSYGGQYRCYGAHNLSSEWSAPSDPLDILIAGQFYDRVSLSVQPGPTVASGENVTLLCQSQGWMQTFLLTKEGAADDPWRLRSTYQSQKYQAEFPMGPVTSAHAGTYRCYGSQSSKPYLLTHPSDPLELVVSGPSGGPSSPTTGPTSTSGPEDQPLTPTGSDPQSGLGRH
T1 sequence (Q8N423 22-461 limits assumed): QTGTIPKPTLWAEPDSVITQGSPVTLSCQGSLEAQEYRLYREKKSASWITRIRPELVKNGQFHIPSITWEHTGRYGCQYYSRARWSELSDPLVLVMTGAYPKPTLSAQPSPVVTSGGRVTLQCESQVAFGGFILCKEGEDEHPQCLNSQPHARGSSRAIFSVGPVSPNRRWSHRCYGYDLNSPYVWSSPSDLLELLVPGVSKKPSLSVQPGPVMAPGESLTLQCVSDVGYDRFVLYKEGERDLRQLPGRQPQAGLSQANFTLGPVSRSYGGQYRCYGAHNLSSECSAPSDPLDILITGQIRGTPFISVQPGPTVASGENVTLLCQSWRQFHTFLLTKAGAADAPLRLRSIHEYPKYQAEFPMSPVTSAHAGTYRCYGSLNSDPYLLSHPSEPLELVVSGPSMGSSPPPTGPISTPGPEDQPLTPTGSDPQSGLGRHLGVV

Binder	EC50 [1] [ng/mL]	EC50 [2] [ng/mL]
B21H4-14 (antibody, human IgG4 S228P, kappa, humanized IgG4/kappa, VH1+VL4; transfection supernatant) heavy: not shown light: DVVMTQSPSTVSASVGDRVTLTCQASGNIYSFLAWYQQKPGQPPKLLIYTASNLETGVPDRFSGSGSGTDYTLTISSLQADDFATYYCLGGLYSSDVSYAFGQGTKVEIKRTVAAPSVFIFPPSDEQLKSGTASVVCLLNNFYPREAKVQWKVDNALQSGNSQESVTEQDSKDSTYSLSSTLTLSKADYEKHKVYACEVTHQGLSSPVTKSFNRGEC	1.46	1.3
B21H4-13 (antibody, human IgG4 S228P, kappa, humanized IgG4/kappa, VH1+VL3; transfection supernatant) heavy: not shown light: DIVMTQSPSSVSASVGDRVTITCQASGNIYSFLAWYQQKPGKAPKLLIYTASNLETGVPSRFSGSGSGTDFTLTISSLQPEDFATYYCLGGLYSSDVSYAFGGGTKVVIKRTVAAPSVFIFPPSDEQLKSGTASVVCLLNNFYPREAKVQWKVDNALQSGNSQESVTEQDSKDSTYSLSSTLTLSKADYEKHKVYACEVTHQGLSSPVTKSFNRGEC	1.01	1.5
B21H4-45 (antibody, human IgG4 S228P, kappa, humanized IgG4/kappa, VH4+VL5; transfection supernatant) heavy: not shown light: DIQMTQTPSTVEASVGGTVTITCQASGNIYSFLAWYQQKPGQPPKLLIYTASNLETGVPSRFSGSGSGTEYTLTISGLQSDDAATYYCLGGLYSSDVSYAFGGGTEVVVKRTVAAPSVFIFPPSDEQLKSGTASVVCLLNNFYPREAKVQWKVDNALQSGNSQESVTEQDSKDSTYSLSSTLTLSKADYEKHKVYACEVTHQGLSSPVTKSFNRGEC	0.26	4.7
B21A4 (antibody, human IgG4 S228P, kappa, Rabbit/human chimera, human IgG4/kappa; 3 is used here; also called B21A chimera IgG4; Clone B21A4) heavy: not shown light: DIVMTQTPASVEAAVGGTVTINCQASGNIYSFLAWYQQKPGQPPKLLIYTASNLETGVPSRFSGSGSGTEYTLTISGVQCDDAATYYCLGGLYSSDVSYAFGGGTEVVVKRTVAAPSVFIFPPSDEQLKSGTASVVCLLNNFYPREAKVQWKVDNALQSGNSQESVTEQDSKDSTYSLSSTLTLSKADYEKHKVYACEVTHQGLSSPVTKSFNRGEC	2.63	3.73

More lines, now with the values ahead:

EC50 [1] [ng/mL]	EC50 [2] [ng/mL]	Binder
2.51	3.88	B21H4-51 (antibody, human IgG4 S228P, kappa, V domains shown, humanized IgG4/kappa, VH5+VL1; transfection supernatant) VH: QVQLEESGGRLVQPGTSLRLSCAVSGFSLNTYAMTWVRQAPGKGLEWIGIIVASGGTYYASWAKGRFTISRDTSKNTLYLQITSLRAEDTATYFCARGGMGSDWGESLDAFDPWGQGTLVTVSS VL: DIQMTQSPSTLSASVGDRVTITCQASGNIYSFLAWYQQKPGKAPKLLIYTASNLETGVPSRFSGSGSGTEYTLTISSLQPDDFATYYCLGGLYSSDVSYAFGPGTKVEIKR
2.75	4.85	B21H4-54 (antibody, human IgG4 S228P, kappa, V domains shown, humanized IgG4/kappa, VH5+VL4; transfection supernatant) VH: QVQLEESGGRLVQPGTSLRLSCAVSGFSLNTYAMTWVRQAPGKGLEWIGIIVASGGTYYASWAKGRFTISRDTSKNTLYLQITSLRAEDTATYFCARGGMGSDWGESLDAFDPWGQGTLVTVSS VL: DVVMTQSPSTVSASVGDRVTLTCQASGNIYSFLAWYQQKPGQPPKLLIYTASNLETGVPDRFSGSGSGTDYTLTISSLQADDFATYYCLGGLYSSDVSYAFGQGTKVEIKR
1.67	4.7	B21H4-53 (antibody, human IgG4 S228P, kappa, V domains shown, humanized IgG4/kappa, VH5+VL3; transfection supernatant) VH: QVQLEESGGRLVQPGTSLRLSCAVSGFSLNTYAMTWVRQAPGKGLEWIGIIVASGGTYYASWAKGRFTISRDTSKNTLYLQITSLRAEDTATYFCARGGMGSDWGESLDAFDPWGQGTLVTVSS VL: DIVMTQSPSSVSASVGDRVTITCQASGNIYSFLAWYQQKPGKAPKLLIYTASNLETGVPSRFSGSGSGTDFTLTISSLQPEDFATYYCLGGLYSSDVSYAFGGGTKVVIKR
